Values belong to the binder of their own block, whether it stands above or below them.
Columns and labels:
[1] = target: T1, Gadd45β/MKK7 complex (biotin-hGadd45β with coated GST-MKK7, ELISA format) (human, UniProt O75293 1-160; O14733 1-419, biotinylated (sites not given)); assay: ELISA competition: coated GST-MKK7 (42 nM), soluble biotin-hGadd45β (21 nM), increasing peptide; read-out % binding of biotin-hGadd45β to MKK7
T1 construct: not shown: glutathione S-transferase (GST) fusion partner
T1 sequence (looked up) 1: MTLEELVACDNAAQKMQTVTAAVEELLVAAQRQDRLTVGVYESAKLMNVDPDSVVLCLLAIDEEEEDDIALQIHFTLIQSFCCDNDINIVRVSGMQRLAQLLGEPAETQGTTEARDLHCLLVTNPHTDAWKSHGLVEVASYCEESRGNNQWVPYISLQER
T1 sequence (looked up) 2: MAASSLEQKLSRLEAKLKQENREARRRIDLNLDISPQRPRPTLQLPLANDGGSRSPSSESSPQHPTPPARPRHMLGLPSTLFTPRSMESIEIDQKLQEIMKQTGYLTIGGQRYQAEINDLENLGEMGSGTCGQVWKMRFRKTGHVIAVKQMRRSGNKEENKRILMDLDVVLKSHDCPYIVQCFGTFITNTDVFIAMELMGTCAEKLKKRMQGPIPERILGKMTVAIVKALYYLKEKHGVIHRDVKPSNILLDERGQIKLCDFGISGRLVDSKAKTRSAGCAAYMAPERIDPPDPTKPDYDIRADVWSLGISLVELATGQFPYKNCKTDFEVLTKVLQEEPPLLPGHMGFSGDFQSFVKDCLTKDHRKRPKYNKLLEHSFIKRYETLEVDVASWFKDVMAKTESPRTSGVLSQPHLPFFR

[2] = target: T1, Gadd45β/MKK7 complex (biotin-hGadd45β …); assay: competition ELISA; coated GST-MKK7, biotin-hGadd45β; single dose
[3] = target: T2, MKK7KD (constitutively active kinase domain of MKK7, residues 101 to 405, S287D and T291D, His6 fusion) (UniProt O14733-3 101-405); assay: SPR (Biacore 3000), Gadd45β immobilized, MKK7KD injected at 1-25 nM
T2 construct: range 101-405; also called MKKKD; not shown: His6 tag
T2 sequence (looked up): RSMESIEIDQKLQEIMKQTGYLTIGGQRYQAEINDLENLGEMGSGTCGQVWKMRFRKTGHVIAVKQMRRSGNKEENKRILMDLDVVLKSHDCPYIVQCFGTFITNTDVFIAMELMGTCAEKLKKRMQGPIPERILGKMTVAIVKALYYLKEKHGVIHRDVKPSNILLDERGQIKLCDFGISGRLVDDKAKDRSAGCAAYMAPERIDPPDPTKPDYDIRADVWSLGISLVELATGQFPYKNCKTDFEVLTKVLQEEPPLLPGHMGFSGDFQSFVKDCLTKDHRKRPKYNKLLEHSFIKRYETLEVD
Method: On another channel the same procedure of activation with EDC/NHS and inactivation with ethanolamine was performed.

[4] = target: T2, MKK7KD (constitutively active kinase …); assay: SPR (Biacore 3000), MKK7KD immobilized, Gadd45β injected at 20-200 nM

IC50 [1]: 0.4 nM | % Inhibition of Gadd45β-MKK7 binding [2]: 94%
Binder: Ac-YDHF-NH2 (also called Ac-LTP1; LTP1) [Ac-YDHF-NH2]

IC50 [1]: 0.4 nM | % Inhibition of Gadd45β-MKK7 binding [2]: 93%
Binder: Ac-YERF-NH2 (also called Ac-LTP2; LTP2) [Ac-YERF-NH2]

Kd [3]: 3.4 nM | Kd [4]: 4 nM
B1: Full length human Gadd45β (other, UniProt O75293 1-160, looked up)
chain: T1 sequence (looked up) 1
notes: also called Gadd45β (SPR)
